Tests used:
Type in all cases: biochemical, Pyrococcus furiosus
[1] = substrate: CC(=O)SCCNC(=O)CCNC(=O)[C@H](O)C(C)(C)COP(=O)(O)OP(=O)(O)OC[C@H]1O[C@@H](n2cnc3c(N)ncnc32)[C@H](O)[C@@H]1OP(=O)(O)O; assay: DTNB assay of released CoASH, 96-well; conditions: forward reaction, 2 mM ADP, 10 mM K2HPO4, 2 mM MgCl2, pH 7.0, 80°C
Text: DTNB assay of released CoASH, 96-well on ACS1-A

[2] = substrate: Nc1nc2c(ncn2[C@@H]2O[C@H](COP(=O)(O)OP(=O)(O)OP(=O)(O)O)[C@@H](O)[C@H]2O)c(=O)[nH]1; assay: colorimetric phosphate release, 96-well; conditions: reverse reaction (acid + CoA), 20 mM acid substrate, 0.5 mM CoA, 2 mM MgCl2, pH 7.0, 80°C
[3] = substrate: Nc1ncnc2c1ncn2[C@@H]1O[C@H](COP(=O)(O)OP(=O)(O)OP(=O)(O)O)[C@@H](O)[C@H]1O; assay: colorimetric phosphate release, 96-well; conditions: reverse reaction (acid + CoA), 20 mM acid substrate, 0.5 mM CoA, 2 mM MgCl2, pH 7.0, 80°C
[4] = substrate: CC(=O)SCCNC(=O)CCNC(=O)[C@H](O)C(C)(C)COP(=O)(O)OP(=O)(O)OC[C@H]1O[C@@H](n2cnc3c(N)ncnc32)[C@H](O)[C@@H]1OP(=O)(O)O; assay: DTNB assay of released CoASH, 96-well; conditions: forward reaction, 2 mM ADP, 10 mM K2HPO4, 2 mM MgCl2, pH 7.0, 80°C; remark: listed apart in the source
Text: DTNB assay of released CoASH, 96-well on ACS4-A

[5] = substrate: CC(=O)SCCNC(=O)CCNC(=O)[C@H](O)C(C)(C)COP(=O)(O)OP(=O)(O)OC[C@H]1O[C@@H](n2cnc3c(N)ncnc32)[C@H](O)[C@@H]1OP(=O)(O)O; assay: DTNB assay of released CoASH, 96-well; conditions: forward reaction, 2 mM ADP, 10 mM K2HPO4, 2 mM MgCl2, pH 7.0, 80°C; remark: listed apart in the source
Text: DTNB assay of released CoASH, 96-well on ACS3-A

[6] = substrate: CC(C)CC(=O)SCCNC(=O)CCNC(=O)[C@H](O)C(C)(C)COP(=O)(O)OP(=O)(O)OC[C@H]1O[C@@H](n2cnc3c(N)ncnc32)[C@H](O)[C@@H]1OP(=O)(O)O; assay: DTNB assay of released CoASH, 96-well; conditions: forward reaction, 2 mM ADP, 10 mM K2HPO4, 2 mM MgCl2, pH 7.0, 80°C
Text: (§1) DTNB assay of released CoASH, 96-well on ACS2-A

[7] = substrate: CC(=O)SCCNC(=O)CCNC(=O)[C@H](O)C(C)(C)COP(=O)(O)OP(=O)(O)OC[C@H]1O[C@@H](n2cnc3c(N)ncnc32)[C@H](O)[C@@H]1OP(=O)(O)O; assay: DTNB assay of released CoASH, 96-well; conditions: forward reaction, 2 mM ADP, 10 mM K2HPO4, 2 mM MgCl2, pH 7.0, 80°C; remark: listed apart in the source
Text: as §1

[8] = substrate: CC(C)(COP(=O)(O)OP(=O)(O)OC[C@H]1O[C@@H](n2cnc3c(N)ncnc32)[C@H](O)[C@@H]1OP(=O)(O)O)[C@@H](O)C(=O)NCCC(=O)NCCSC(=O)Cc1ccccc1; assay: DTNB assay of released CoASH, 96-well; conditions: forward reaction, 2 mM ADP, 10 mM K2HPO4, 2 mM MgCl2, pH 7.0, 80°C
Text: as §1

B1: ACS1-A (Pyrococcus furiosus DSM 3638) (protein)
chain 1: MSLEALFNPKSVAVIGASAKPGKIGYAIMKNLIEYGYEGKIYPVNIKGGEIEINGRKFKVYKSVLEIPDEVDMAVIVVPAKFVPQVLEECGQKGVKVVPIISSGFGELGEEGKKVEQQLVETARKYGMRILGPNIFGVVYTPAKLNATFGPTDVLPGPLALISQSGALGIALMGWTILEKIGLSAVVSVGNKADIDDADLLEFFKDDENTRAILIYMEGVKDGRRFMEVAKEVSKKKPIIVIKAGRSERGAKAAASHTGSLAGSDKVYSAAFKQSGVLRAYTIGEAFDWARALSNLPEPQGDNVVIITNGGGIGVMATDAAEEEGLHLYDNLEELKIFANHMPPFGSYKNPVDLTGMADGKSYEGAIRDALAHPEMHSIAVLYCQTAVLDPRELAEIVIREYNESGRKKPLVVAIVGGIEAKEAIDMLNENGIPAYPEPERAIKALSALYKWSKWKAKHKEK
chain 2: MKGEALKIIEEVLAQGRTAMVEYEAKQVLKAYGLPVPEEKLAKTLDEALKYAEEIGYPVAMKLMSPQILHKSDAKVVMLNIKSPEELKKKWEEIHENARKYRPDAEIFGVLIAPMLKPGREVIIGVTEDPQFGHAIMFGLGGIFVEILKDVTFRIIPITEKDARKMITEIKAYPILAGARGEEPADIEAIVDMLLKVSKLVDDLKDYIKEMDLNPVFVYRKGEGAVVVDARIILKG
notes: alpha (pET24a) and beta-A (pET21b) coexpressed in E. coli BL21(DE3) pRIL, untagged (stop codons in primers), heat-treated and desalted; alpha2beta2 ~140 kDa; Printed PF1837 primers are identical to those of PF1838 (probable misprint)
[1]
  Km: 137 ± 91 µM
  kcat/Km: 140000 M⁻¹ s⁻¹
[2]
  Km: 223 ± 58 µM
  kcat/Km: 10000 M⁻¹ s⁻¹
[3]
  Km: 132 ± 19 µM
  kcat/Km: 140000 M⁻¹ s⁻¹

B2: ACS4-A (Pyrococcus furiosus DSM 3638) (protein)
chain 1: MRYFFYPNSVAIFGSFREGAIAREILRNIVEGGFEGKIIPVNPKGGEVEVAGKKFNIKEKLDEPVDVSIIAIPAKLVPELIRGLKGLTKGAVVISAGFSEVGNVELEKELIKAAKEAGIRVIGPNCAGIFGVHAKFYGSFEVRVNPGGLALISQSGAFGGAALAMGNEEGIGFSAFVSYGNAADLDESDFLRFFADDENTRVIGLYIEGVKDGRKFLDALRYAASKKPVIILKAGKSRAGARAAASHTGSLAGSYEIYRAAFRQAGAIEVEEMEELFDAAKAFEMYERAGRRVAIITNSGGPGVLATDKLERLGLEIAKLTEETVEELRSFLPPQCSVKNPVDLIADADYERYKRAIEVVCRDENVDAILVICVPPIFIPSEEIARAVVEANCDKPIIVNFMAGELVREGIKILESKKIKNFPTPERAAKALYWLSLRSSSE
chain 2: MKGEALKIIEEVLAQGRTAMVEYEAKQVLKAYGLPVPEEKLAKTLDEALKYAEEIGYPVAMKLMSPQILHKSDAKVVMLNIKSPEELKKKWEEIHENARKYRPDAEIFGVLIAPMLKPGREVIIGVTEDPQFGHAIMFGLGGIFVEILKDVTFRIIPITEKDARKMITEIKAYPILAGARGEEPADIEAIVDMLLKVSKLVDDLKDYIKEMDLNPVFVYRKGEGAVVVDARIILKG
notes: alpha (pET24a) and beta-A (pET21b) coexpressed in E. coli BL21(DE3) pRIL, untagged, heat-treated and desalted; alpha2beta2 ~140 kDa; Printed PF1837 primers identical to PF1838 (probable misprint)
[4]
  Km: 242 ± 46 µM
  kcat/Km: 119000 M⁻¹ s⁻¹

B3: ACS3-A (Pyrococcus furiosus DSM 3638) (protein)
chain 1: MTVNLDFLFYPKSVAVIGASATPGKVGNAIMKSLAANFNGKVYPVNVKEGEIEINGKKFKVYRSIKEIPDEVDVAVIAVPAKFVPDVIDECGEKGVKGAIVISAGFKEAGRADLEEELVKRARKWGIRVVGPNCLGVTNLENGFDCNFNPPERQARPKFGPIAFMSQSGAFGAAILDWAARHEVGMSKFISLGNMADLDESDFMLYLKDDPKTKVITAYIEGVKDGRKFFNAAKETTKVKPVIILKAGRTEAGAKAAASHTGSLAGSYKIYQAAFEQTGVLAAKSMRQLFNYAKALAMQSPAKGDRVAIVTNGGGAGVMMSDGLLEAGLKLAEFTEETKEKFRKAIEEGLLPEHMSYKNPVDVIGDAPSSRYETAIRYVLEDPNVDIVVVIALFQSPALDEGIVDVMERVKEYGKPIVFVAPGGEYPERMARKIEEKGIPVFETVEDGVDAVYALIKYGKYLAEL
chain 2: MKGEALKIIEEVLAQGRTAMVEYEAKQVLKAYGLPVPEEKLAKTLDEALKYAEEIGYPVAMKLMSPQILHKSDAKVVMLNIKSPEELKKKWEEIHENARKYRPDAEIFGVLIAPMLKPGREVIIGVTEDPQFGHAIMFGLGGIFVEILKDVTFRIIPITEKDARKMITEIKAYPILAGARGEEPADIEAIVDMLLKVSKLVDDLKDYIKEMDLNPVFVYRKGEGAVVVDARIILKG
notes: as for B2
[5]
  Km: 474 ± 165 µM
  kcat/Km: 12000 M⁻¹ s⁻¹

B4: ACS2-A (Pyrococcus furiosus DSM 3638) (protein)
chain 1: MLDYFFNPRGIAVIGASNDPKKLGYEVFKNLKEYQGGKVYPVNVREEEVQGVKAYKSVKEIPGEVDLAIIVVPKKFVKQTLIECGEKGVKGVVIITAGFGETGEEGKREEKELVEIAHKYGMRIIGPNCVGIMNTHANLNATFITVAKKGNVAFISQSGALGAGIVYKTIKEDIGFSKFISVGNMADLDFADLMEYLADTQEDKAIALYIEGIKDGRRFIEVAKKVTKKKPVIALKAGKSESGSRAAASHTGSLAGSWKIYEAAFKQSGVLVANTIDEMLSMARAFTQPLPKGNRVAIMTNAGGPGVLTADEIDKRGLKLANLEEKTIEELRSFLPPMAAVKNPVDMIASARGEDYYRTAKLLLQDPNVDILIAICVVPTFAGMTPTEHAEGIIRAVKEVNNGKPVLALFMAGYVSEKAKELLEKNGIPTYERPEDVAAAAYALVQQAKNVGGGVNG
chain 2: MKGEALKIIEEVLAQGRTAMVEYEAKQVLKAYGLPVPEEKLAKTLDEALKYAEEIGYPVAMKLMSPQILHKSDAKVVMLNIKSPEELKKKWEEIHENARKYRPDAEIFGVLIAPMLKPGREVIIGVTEDPQFGHAIMFGLGGIFVEILKDVTFRIIPITEKDARKMITEIKAYPILAGARGEEPADIEAIVDMLLKVSKLVDDLKDYIKEMDLNPVFVYRKGEGAVVVDARIILKG
notes: as for B2
[6]
  Km: 466 ± 119 µM
  kcat/Km: 109000 M⁻¹ s⁻¹
[7]
  Km: 350 ± 2 µM
  kcat/Km: 114000 M⁻¹ s⁻¹
[8]
  Km: 3320 ± 1320 µM
  kcat/Km: 150000 M⁻¹ s⁻¹

Source: paper PMC3942289, “Characterization of Ten Heterotetrameric NDP-Dependent Acyl-CoA Synthetases of the Hyperthermophilic Archaeon Pyrococcus furiosus” (Archaea, 2014)
